Data published in PMC13545989.

Tests used:
[1] = molecular target: TRAK1/mScarlet fusion protein (wild type) (UniProt Q9UPV9); assay: co-IP; FLAG purification of Miro1/FP/FLAG/I3-01 synthetic cargo from hTERT RPE-1 cell lines co-expressing TRAK/mScarlet variants; immunoblot of the associated motor-adaptor components (kinesin, dynein, dynactin); also done after kinesin RNAi (fig. S4E)
kinesin-1, P33176 = molecular target: T1, kinesin-1, P33176; assay: FLAG immunoprecipitation of synthetic cargo, immunoblot quantification (anti-KIF5B); conditions: chain shown with the change; IP: flag; hTERT RPE-1 cells; n=4; parent: est. 1.0; read off a plot
T1 chain: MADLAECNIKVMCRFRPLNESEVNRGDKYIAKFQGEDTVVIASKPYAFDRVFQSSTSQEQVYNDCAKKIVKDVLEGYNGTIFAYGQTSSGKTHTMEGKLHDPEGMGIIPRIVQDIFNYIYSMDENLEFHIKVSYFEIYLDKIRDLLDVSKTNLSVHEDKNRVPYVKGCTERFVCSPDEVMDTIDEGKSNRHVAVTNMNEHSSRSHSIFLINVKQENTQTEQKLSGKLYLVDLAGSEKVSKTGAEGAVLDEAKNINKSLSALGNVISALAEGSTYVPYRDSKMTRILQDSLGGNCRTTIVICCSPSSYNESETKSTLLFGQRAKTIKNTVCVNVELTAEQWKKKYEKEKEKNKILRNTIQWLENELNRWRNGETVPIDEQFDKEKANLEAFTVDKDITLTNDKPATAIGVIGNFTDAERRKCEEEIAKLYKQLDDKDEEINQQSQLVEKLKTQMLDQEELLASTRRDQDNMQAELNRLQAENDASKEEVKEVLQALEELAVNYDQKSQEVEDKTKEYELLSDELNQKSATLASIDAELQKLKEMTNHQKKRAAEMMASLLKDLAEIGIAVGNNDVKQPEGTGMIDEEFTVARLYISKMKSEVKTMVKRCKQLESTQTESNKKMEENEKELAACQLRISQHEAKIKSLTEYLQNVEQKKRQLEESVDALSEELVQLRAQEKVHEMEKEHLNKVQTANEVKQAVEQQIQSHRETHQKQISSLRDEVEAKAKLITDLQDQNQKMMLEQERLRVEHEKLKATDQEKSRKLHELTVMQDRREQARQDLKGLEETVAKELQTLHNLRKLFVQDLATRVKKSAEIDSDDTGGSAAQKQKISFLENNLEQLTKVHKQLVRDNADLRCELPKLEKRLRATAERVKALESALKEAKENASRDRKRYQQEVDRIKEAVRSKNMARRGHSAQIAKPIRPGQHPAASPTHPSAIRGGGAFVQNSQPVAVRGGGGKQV

A fold enrichment versus TRAK2-driven synthetic cargo [1] of 20 fold was found for “kinesin-1 (from UniProt P33176 1-963) (natural protein)” in this work.

B1: TRAK1/mScarlet fusion protein (wild type), Q9UPV9 L92A; F95A (protein)
chain: MALVFQFGQPVRAQPLPGLCHGKLIRTNACDVCNSTDLPEVEIISLLEEQLPHYKLRADTIYGYDHDDWLHTPLISPDANIDLTTEQIEETAKYALLCAERVGQMTKTYNDIDAVTRLLEEKERDLELAARIGQSLLKKNKTLTERNELLEEQVEHIREEVSQLRHELSMKDELLQFYTSAAEESEPESVCSTPLKRNESSSSVQNYFHLDSLQKKLKDLEEENVVLRSEASQLKTETITYEEKEQQLVNDCVKELRDANVQIASISEELAKKTEDAARQQEEITHLLSQIVDLQKKAKACAVENEELVQHLGAAKDAQRQLTAELRELEDKYAECMEMLHEAQEELKNLRNKTMPNTTSRRYHSLGLFPMDSLAAEIEGTMRKELQLEEAESPDITHQKRVFETVRNINQVVKQRSLTPSPMNIPGSNQSSAMNSLLSSCVSTPRSSFYGSDIGNVVLDNKTNSIILETEAADLGNDERSKKPGTPGTPGSHDLETALRRLSLRRENYLSERRFFEEEQERKLQELAEKGELRSGSLTPTESIMSLGTHSRFSEFTGFSGMSFSSRSYLPEKLQIVKPLEGSATLHHWQQLAQPHLGGILDPRPGVVTKGFRTLDVDLDEVYCLNDFEEDDTGDHISLPRLATSTPVQHPETSAHHPGKCMSQTNSTFTFTTCRILHPSDELTRVTPSLNSAPTPACGSTSHLKSTPVATPCTPRRLSLAESFTNTRESTTTMSTSLGLVWLLKERGISAAVYDPQSWDRAGRGSLLHSYTPKMAVIPSTPPNSPMQTPTSSPPSFEFKCTSPPYDNFLASKPASSILREVREKNVRSSESQTDVSVSNLNLVDKVRRFGVAKVVNSGRAHVPTLTEEQGPLLCGPPGPAPALVPRGLVPEGLPLRCPTVTSAIGGLQLNSGIRRNRSFPTMVGSSMQMKAPVTLTSGILMGAKLSKQTSLR
A ratio to parent (kinesin-1, P33176) of 0.02 was found for B1 in this work.

B2: TRAK2/mScarlet fusion protein (wild type), O60296 F92A; M95A (protein)
chain: MSQSQNAIFTSPTGEENLMNSNHRDSESITDVCSNEDLPEVELVSLLEEQLPQYRLKVDTLFLYENQDWTQSPHQRQHASDALSPVLAEETARYAILGTDRVEQMTKTYNDIDMVTHLLAERDRDLELAARIGQALLKRNHVLSEQNESLEEQLGQAFDQVNQLQHELCKKDELLRIVSIASEESETDSSCSTPLRFNESFSLSQGLLQLEMLQEKLKELEEENMALRSKACHIKTETVTYEEKEQQLVSDCVKELRETNAQMSRMTEELSGKSDELIRYQEELSSLLSQIVDLQHKLKEHVIEKEELKLHLQASKDAQRQLTMELHELQDRNMECLGMLHESQEEIKELRSRSGPTAHLYFSQSYGAFTGESLAAEIEGTMRKKLSLDEESSLFKQKAQQKRVFDTVRIANDTRGRSISFPALLPIPGSNRSSVIMTAKPFESGLQQTEDKSLLNQGSSSEEVAGSSQKMGQPGPSGDSDLATALHRLSLRRQNYLSEKQFFAEEWQRKIQVLADQKEGVSGCVTPTESLASLCTTQSEITDLSSASCLRGFMPEKLQIVKPLEGSQTLYHWQQLAQPNLGTILDPRPGVITKGFTQLPGDAIYHISDLEEDEEEGITFQVQQPLEVEEKLSTSKPVTGIFLPPITSAGGPVTVATANPGKCLSCTNSTFTFTTCRILHPSDITQVTPSSGFPSLSCGSSGSSSSNTAVNSPALSYRLSIGESITNRRDSTTTFSSTMSLAKLLQERGISAKVYHSPISENPLQPLPKSLAIPSTPPNSPSHSPCPSPLPFEPRVHLSENFLASRPAETFLQEMYGLRPSRNPPDVGQLKMNLVDRLKRLGIARVVKNPGAQENGRCQEAEIGPQKPDSAVYLNSGSSLLGGLRRNQSLPVIMGSFAAPVCTSSPKMGVLKED
A ratio to parent (kinesin-1, P33176) of 0.46 was found for B2 in this work.
